Assay results taken from the supplement of paper PMC10724198.
± gives the standard deviation of the averaged measurements.

System: Saccharomyces cerevisiae
Test: protein stability index of tFT-peptide fusion (C-terminal peptide) (PSI (0-1 scale)); higher = more stable (slower turnover)
Conditions: temperature: 30 C
Method: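 MPS profiling in S. cerevisiae of the yeast C-terminome library: the last 12 aa of each annotated ORF are fused to the C-terminus of a sfGFP-mCherry timer, after a GGGS linker. Cells are FACS-sorted into 8 mCherry/sfGFP bins and deep-sequenced. PSI runs from 0 (unstable) to 1 (stable); wild type and das1Δ backgrounds, two technical replicates each.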

[1] = genetic background: das1 deletion

Sequence	protein stability index [1]	protein stability index (genetic background: wild type)
KNIPEKFKNGIF [SSP120 C-terminal 12 aa]	0.729 ± 0.036	0.647 ± 0.0098
DLKIYLQQDESL [YEL023C C-terminal 12 aa]	0.709 ± 0.028	0.672 ± 0.015
TSPRNICTSLCV [SAL1 C-terminal 12 aa]	0.66358 ± 0.00023	0.655 ± 0.038
LAWNPNLSAKRF [PRP46 C-terminal 12 aa]	0.71 ± 0.031	0.705 ± 0.021
EKVIDGSIEHSS [YNR061C C-terminal 12 aa]	0.6642 ± 0.0044	0.703 ± 0.017
KYRRQVRYTQRT [YGL052W C-terminal 12 aa]	0.708 ± 0.0075	0.698 ± 0.013
ANLFSSKKKAKL [RSB1 C-terminal 12 aa]	0.803 ± 0.058	0.822 ± 0.061
KTHRSRSSRKGN [YMR135W-A C-terminal 12 aa]	0.6834 ± 0.0026	0.704 ± 0.023
NDSEPESEYQQE [CUB1 C-terminal 12 aa]	0.6922 ± 0.0057	0.713 ± 0.0081
LKSGEKESNASK [SDC1 C-terminal 12 aa]	0.678 ± 0.0026	0.652 ± 0.013
NGLWEQEKTEKR [YKR041W C-terminal 12 aa]	0.716 ± 0.025	0.733 ± 0.061
KEVPLDFDPDRN [ANP1 C-terminal 12 aa]	0.683 ± 0.037	0.688 ± 0.022
IRIVITINKVTL [IRC9 C-terminal 12 aa]	0.348 ± 0.0076	0.36577 ± 0.00023
LSQRAWATKKPI [YJL028W C-terminal 12 aa]	0.696 ± 0.012	0.732 ± 0.077
SDEEPSSKKRKV [VPS75 C-terminal 12 aa]	0.703 ± 0.035	0.678 ± 0.01
LERLRYLFPNYW [MEU1 C-terminal 12 aa]	0.738 ± 0.016	0.717 ± 0.051
YLTFYKSPKTFY [YDR183C-A C-terminal 12 aa]	0.71 ± 0.037	0.637 ± 0.055
EVHALNRDHLVA [YHR138C C-terminal 12 aa]	0.692 ± 0.0076	0.674 ± 0.023
DEDDDEDVTDQE [DLS1 C-terminal 12 aa]	0.6663 ± 0.004	0.677 ± 0.013
LSTWDARTPILD [GPI2 C-terminal 12 aa]	0.705 ± 0.0016	0.703 ± 0.0087
VFPDVLFTFLFS [YEL010W C-terminal 12 aa]	0.70228 ± 0.00029	0.713 ± 0.027

Sequence	protein stability index [1]	protein stability index (genetic background: wild type)
PGCVIENGTKLY [ADE57 C-terminal 12 aa]	0.687 ± 0.012	0.71 ± 0.011
SVTSGSANFVFY [UTH1 C-terminal 12 aa]	0.7081 ± 0.0034	0.7 ± 0.019
CICSGMLFEMDG [SIN4 C-terminal 12 aa]	0.696 ± 0.011	0.716 ± 0.067
LSIAAGVGFALV [GAS1 C-terminal 12 aa]	0.657 ± 0.007	0.653 ± 0.0083
AKGKGKSDEKIL [YIL086C C-terminal 12 aa]	0.7026 ± 0.0025	0.73 ± 0.12
PNILLAFSYTAW [YNL170W C-terminal 12 aa]	0.532 ± 0.017	0.5663 ± 0.0014
NGEIMTCWEWKE [HEH2 C-terminal 12 aa]	0.691 ± 0.034	0.686 ± 0.019
SMHAFLCKIYKR [YCR095W-A C-terminal 12 aa]	0.701 ± 0.02	0.6761 ± 0.0035
NSIDIGSRLSLM [PEX1 C-terminal 12 aa]	0.704 ± 0.0078	0.68911 ± 4.9e-05
NVPVSNGTTAAQ [UTP23 C-terminal 12 aa]	0.695 ± 0.013	0.691 ± 0.025
TVPGDENKITKK [PDR12 C-terminal 12 aa]	0.711 ± 0.017	0.654 ± 0.064
SSYFRIEGKKKK [CUE2 C-terminal 12 aa]	0.68 ± 0.022	0.683 ± 0.024
HKGAVCVALNDV [LST8 C-terminal 12 aa]	0.6883 ± 0.0052	0.696 ± 0.051
FKIFAKLFCTRK [HLR1 C-terminal 12 aa]	0.71093 ± 0.00038	0.6936 ± 0.0041
KSQISVSFYRDN [YPR027C C-terminal 12 aa]	0.704 ± 0.04	0.6736 ± 0.0023
APRLRLEDIFQQ [RET1 C-terminal 12 aa]	0.752 ± 0.011	0.7 ± 0.052
KTYIKNDVEIFN [HBN1 C-terminal 12 aa]	0.715 ± 0.025	0.726 ± 0.067
FDTSAQSDRKHS [DCV1 C-terminal 12 aa]	0.719 ± 0.011	0.692 ± 0.018
HEEVKHTADTVD [CDC37 C-terminal 12 aa]	0.71118 ± 0.00024	0.67 ± 0.018
EYDDDSGNQGVW [GRE1 C-terminal 12 aa]	0.6914 ± 0.00077	0.739 ± 0.049
